Measurements as given in patent US20260193378A1.

Assays:
[1] = biological target: first-generation PSMA-targeting Pz1 CAR; test: flow cytometry on CAR+ PG13 fibroblasts, FL2-H PE against FL1-H FITC (no staining), live gate, 9029 events; lower right panel, taken as Pz1 from the panel order of FIG. 18A and 18C; first panel (PG13 sample line) in the same gate: 0
[2] = biological target: CD19-targeting first-generation 19z1 CAR; test: flow cytometry on CAR+ PG13 fibroblasts, FL2-H PE against FL1-H FITC (no staining), live gate, 7308 events; lower left panel, sample line '19z1-19E9-PE 1 to 1000', same position as 19z1 in FIG. 18A and 18C; first panel (PG13 sample line) in the same gate: 0
[3] = biological target: first-generation PSMA-targeting Pz1 CAR; test: flow cytometry on PG13 fibroblasts expressing the Pz1 CAR (panel title 'PZ1', sample line 'PZ1-12D11-H'), 12D11 detected with anti-hamster IgG FITC, FL1-H FITC against FL2-H PE, live gate, 9102 events; parental PG13 cells in the same gate: 0.85
[4] = biological target: CD19-targeting first-generation 19z1 CAR; test: flow cytometry on PG13 fibroblasts expressing the 19z1 CAR (panel title '19z1', sample line '19z 1-12D11-H'), 12D11 detected with anti-hamster IgG FITC, FL1-H FITC against FL2-H PE, live gate, 7334 events; parental PG13 cells in the same gate: 0.85
[5] = biological target: CD19-targeting second-generation 1928z CAR; test: flow cytometry on PG13 fibroblasts expressing the 1928z CAR (panel title '19-28z1 cells', sample line '1928z 1-12D11-H'), 12D11 detected with anti-hamster IgG FITC, FL1-H FITC against FL2-H PE, live gate, 9569 events; parental PG13 cells in the same gate: 0.85

gate frequency (percent of live events in the PE-positive gate) [1]	gate frequency (percent of live events in the PE-positive gate) [2]	gate frequency (percent of live events in the FITC-positive gate) [3]	gate frequency (percent of live events in the FITC-positive gate) [4]	gate frequency (percent of live events in the FITC-positive gate) [5]	Binder
0.011	99.2				19E3 monoclonal antibody (antibody, V domains shown) VH: EVQLVESGGGLVQTGKSLKLSCEASGFTFSDFDMNWVRQAPGKGLEWVAYINGGSGVIFYADAVKGRFTISRDNAKNLLFLQMNNLKSEDSAMYYCAREELGRRYYFDYWGQGTMVTVSS VL: SQPVLTQSPSASASLSGSVKLTCTLSSEHSSYNIAWYQQHPDKAPKYVMYLKSDGSHFKGDGIPDRFSGSSSGAHRYLSISNVQSEDDATYFCGAGYTISGQYGYVFDSGTQLTVLG
		76.4	96.3	67.9	12D11 monoclonal antibody (antibody, V domains shown) VH: AVRLLESGGGLVKPEGALKLSCVASGFDLSDYFMGWVRQAPGKGLEWVAHIYPQSYDYATYYSGSVQGRFTISRDDSRSMVYLQMNNLRTEDTATYYCTKDGDVGFWGQGTMVTVSS VL: DIQVTQSPTLLSASLGDKVTINCLASQDISNELNWYQQKSGQSPTLLIYNGKNLQSGVPSRFSGQYSGRSFTISINNVEPEDVATYFCLQHYSFPLTFGDGSKLEMKR
